Source: publication PMC7375812, “Molecular determinants of large cargo transport into the nucleus” (eLife, 2020)
Positions count from the first letter of the chain named. Numbers in names are those of the source.

Molecular target: the molecule itself
Test: negative-stain electron microscopy; purified (and labelled) capsids adsorbed on glow-discharged carbon-coated grids, 2% uranyl acetate

B1: MS2^S37P capsid (bacteriophage MS2 coat protein with S37P and T15C) (natural protein)
chain: MASNFTQFVLVDNGGCGDVTVAPSNFANGVAEWISSNPRSQAYKVTCSVRQSSAQNRKYTIKVEVPKVATQTVGGVELPVAAWRSYLNMELTIPIFATNSDCELIVKAMQGLLKDGNPIPSAIAANSGIY
modifications: the introduced cysteine (T15C) coupled by maleimide to Alexa Fluor 647 or to the NLS peptide Mal-…, in a share of the copies each
notes: coat protein of bacteriophage MS2; The NLS peptide is a branch on the cysteine, not part of the chain; source: E. coli BL21 AI, purified (PEI, ammonium sulphate, tangential flow, size exclusion after labelling); copies: 60
  binding result: binds

B2: MS2 capsid (wild-type bacteriophage MS2 coat protein with T15C) (natural protein)
chain: B1 chain with P38S
modifications: the introduced cysteine (T15C) coupled by maleimide to Alexa Fluor 647 or to the NLS peptide Mal-…, in a share of the copies each
notes: coat protein of bacteriophage MS2; The NLS peptide is a branch on the cysteine, not part of the chain; source: E. coli BL21 AI, purified (PEI, ammonium sulphate, tangential flow, size exclusion after labelling); copies: 180
  binding result: binds
